Measured values published in the Immune Epitope Database (IEDB).

What was measured:
Assay in all cases: IEDB peptide-MHC binding, purified MHC/competitive/radioactivity; filed as Kd, often an IC50 or EC50 that approximates it; ≥ and ≤ were set here for values at or beyond the usual limits of such assays
HLA-A*03:01 = molecular target: HLA-A*03:01
HLA-A*11:01 = molecular target: HLA-A*11:01
HLA-A*31:01 = molecular target: HLA-A*31:01
HLA-A*33:01 = molecular target: HLA-A*33:01
HLA-A*68:01 = molecular target: HLA-A*68:01
[1] = source organism: Vaccinia virus WR
[2] = source organism: Mammarenavirus guanaritoense
[3] = source organism: SARS coronavirus Tor2
[4] = source organism: Mammarenavirus machupoense
[5] = source organism: Mopeia Lassa virus reassortant 29
[6] = source organism: Mammarenavirus juninense

EIIFLKLFKK
Kd (HLA-A*03:01; [1]): 88.2 nM
Kd (HLA-A*11:01; [1]): 17.7 nM
Kd (HLA-A*31:01; [1]): 20 nM
Kd (HLA-A*33:01; [1]): 129 nM
Kd (HLA-A*68:01; [1]): 5.36 nM

EIKQGRVNK
Kd (HLA-A*03:01; [1]): 640 nM
Kd (HLA-A*11:01; [1]): 517 nM
Kd (HLA-A*31:01; [1]): ≥ 51300 nM
Kd (HLA-A*33:01; [1]): 3260 nM
Kd (HLA-A*68:01; [1]): 88.4 nM

FALKKLIIDR
Kd (HLA-A*03:01; [1]): ≥ 70100 nM
Kd (HLA-A*11:01; [1]): 2100 nM
Kd (HLA-A*31:01; [1]): 1070 nM
Kd (HLA-A*33:01; [1]): 3300 nM
Kd (HLA-A*68:01; [1]): 550 nM

FIDRGSIKIK
Kd (HLA-A*03:01; [1]): 495 nM
Kd (HLA-A*11:01; [1]): 708 nM
Kd (HLA-A*31:01; [1]): 2230 nM
Kd (HLA-A*33:01; [1]): 3960 nM
Kd (HLA-A*68:01; [1]): 860 nM

FTQHLLNIR
Kd (HLA-A*03:01; [1]): ≥ 78000 nM
Kd (HLA-A*11:01; [1]): ≥ 77900 nM
Kd (HLA-A*31:01; [1]): ≥ 77900 nM
Kd (HLA-A*33:01; [1]): ≥ 77700 nM
Kd (HLA-A*68:01; [1]): ≥ 77700 nM

GSWATSSFR
Kd (HLA-A*03:01; [1]): 111 nM
Kd (HLA-A*11:01; [1]): 7.38 nM
Kd (HLA-A*31:01; [1]): 0.56 nM
Kd (HLA-A*33:01; [1]): 226 nM
Kd (HLA-A*68:01; [1]): 54.1 nM

IANSNIIKNK
Kd (HLA-A*03:01; [1]): 47.2 nM
Kd (HLA-A*11:01; [1]): 39.5 nM
Kd (HLA-A*31:01; [1]): 19900 nM
Kd (HLA-A*33:01; [1]): ≥ 39300 nM
Kd (HLA-A*68:01; [1]): 212 nM

IFFTTSLFLH
Kd (HLA-A*03:01; [2]): 1030 nM
Kd (HLA-A*11:01; [2]): 17600 nM
Kd (HLA-A*31:01; [2]): 1360 nM
Kd (HLA-A*33:01; [2]): 1040 nM
Kd (HLA-A*68:01; [2]): 3490 nM

IFMRDWNSK
Kd (HLA-A*03:01; [1]): 11700 nM
Kd (HLA-A*11:01; [1]): 8210 nM
Kd (HLA-A*31:01; [1]): 8520 nM
Kd (HLA-A*33:01; [1]): 8940 nM
Kd (HLA-A*68:01; [1]): 2390 nM

IQRFSSLRR
Kd (HLA-A*03:01; [1]): 125 nM
Kd (HLA-A*11:01; [1]): 1010 nM
Kd (HLA-A*31:01; [1]): 55.9 nM
Kd (HLA-A*33:01; [1]): ≥ 30400 nM
Kd (HLA-A*68:01; [1]): 11900 nM

IQVTISSYK
Kd (HLA-A*03:01; [3]): 15.4 nM
Kd (HLA-A*11:01; [3]): 10.8 nM
Kd (HLA-A*31:01; [3]): 139 nM
Kd (HLA-A*33:01; [3]): 7950 nM
Kd (HLA-A*68:01; [3]): 274 nM

KAEMQLKIDK
Kd (HLA-A*03:01; [1]): 3720 nM
Kd (HLA-A*11:01; [1]): 125 nM
Kd (HLA-A*31:01; [1]): 3270 nM
Kd (HLA-A*33:01; [1]): 19800 nM
Kd (HLA-A*68:01; [1]): ≥ 25200 nM

KFGNSINVK
Kd (HLA-A*03:01; [1]): 7140 nM
Kd (HLA-A*11:01; [1]): 6460 nM
Kd (HLA-A*31:01; [1]): 618 nM
Kd (HLA-A*33:01; [1]): ≥ 77700 nM
Kd (HLA-A*68:01; [1]): ≥ 46400 nM

KFLEFSNRVY
Kd (HLA-A*03:01; [1]): ≥ 39800 nM
Kd (HLA-A*11:01; [1]): 10100 nM
Kd (HLA-A*31:01; [1]): 24.5 nM
Kd (HLA-A*33:01; [1]): ≥ 70000 nM
Kd (HLA-A*68:01; [1]): ≥ 68800 nM

KQYDSTDFK
Kd (HLA-A*03:01; [1]): 61.8 nM
Kd (HLA-A*11:01; [1]): 33.5 nM
Kd (HLA-A*31:01; [1]): 70.9 nM
Kd (HLA-A*33:01; [1]): ≥ 25500 nM
Kd (HLA-A*68:01; [1]): 1860 nM

KSINKVYGRY
Kd (HLA-A*03:01; [1]): 2610 nM
Kd (HLA-A*11:01; [1]): 1190 nM
Kd (HLA-A*31:01; [1]): 64.3 nM
Kd (HLA-A*33:01; [1]): ≥ 70000 nM
Kd (HLA-A*68:01; [1]): ≥ 33500 nM

KSISSMTIR
Kd (HLA-A*03:01; [1]): 1280 nM
Kd (HLA-A*11:01; [1]): 281 nM
Kd (HLA-A*31:01; [1]): 3.64 nM
Kd (HLA-A*33:01; [1]): 7710 nM
Kd (HLA-A*68:01; [1]): 832 nM

KSPLPSLEY
Kd (HLA-A*03:01; [1]): 278 nM
Kd (HLA-A*11:01; [1]): 228 nM
Kd (HLA-A*31:01; [1]): 7390 nM
Kd (HLA-A*33:01; [1]): ≥ 77700 nM
Kd (HLA-A*68:01; [1]): ≥ 77700 nM

KSVTKSSSWK
Kd (HLA-A*03:01; [1]): 10 nM
Kd (HLA-A*11:01; [1]): 13.8 nM
Kd (HLA-A*31:01; [1]): 376 nM
Kd (HLA-A*33:01; [1]): ≥ 55700 nM
Kd (HLA-A*68:01; [1]): 79 nM

KTNDINVRRR
Kd (HLA-A*03:01; [1]): 64.1 nM
Kd (HLA-A*11:01; [1]): 1460 nM
Kd (HLA-A*31:01; [1]): 17.9 nM
Kd (HLA-A*33:01; [1]): 5470 nM
Kd (HLA-A*68:01; [1]): 848 nM

LLIWAYLSKK
Kd (HLA-A*03:01; [1]): 42.1 nM
Kd (HLA-A*11:01; [1]): 124 nM
Kd (HLA-A*31:01; [1]): 1980 nM
Kd (HLA-A*33:01; [1]): 2340 nM
Kd (HLA-A*68:01; [1]): 363 nM

LNNSFYYMK
Kd (HLA-A*03:01; [4]): 7240 nM
Kd (HLA-A*11:01; [4]): 619 nM
Kd (HLA-A*31:01; [4]): 26.4 nM
Kd (HLA-A*33:01; [4]): ≥ 77700 nM
Kd (HLA-A*68:01; [4]): 67.7 nM

LQFAYSNRNR
Kd (HLA-A*03:01; [3]): 890 nM
Kd (HLA-A*11:01; [3]): 1730 nM
Kd (HLA-A*31:01; [3]): 5.59 nM
Kd (HLA-A*33:01; [3]): 1270 nM
Kd (HLA-A*68:01; [3]): 1050 nM

LSARNKLFKR
Kd (HLA-A*03:01; [1]): ≥ 70100 nM
Kd (HLA-A*11:01; [1]): 2680 nM
Kd (HLA-A*31:01; [1]): 16.9 nM
Kd (HLA-A*33:01; [1]): 1710 nM
Kd (HLA-A*68:01; [1]): 124 nM

LSKRERQLAK
Kd (HLA-A*03:01; [1]): 1360 nM
Kd (HLA-A*11:01; [1]): 1120 nM
Kd (HLA-A*31:01; [1]): 1600 nM
Kd (HLA-A*33:01; [1]): ≥ 57900 nM
Kd (HLA-A*68:01; [1]): 5940 nM

LSLSNLDFR
Kd (HLA-A*03:01; [1]): ≥ 78000 nM
Kd (HLA-A*11:01; [1]): 349 nM
Kd (HLA-A*31:01; [1]): 21.7 nM
Kd (HLA-A*33:01; [1]): 675 nM
Kd (HLA-A*68:01; [1]): 300 nM

LSPAHLINK
Kd (HLA-A*03:01; [1]): 208 nM
Kd (HLA-A*11:01; [1]): 39.4 nM
Kd (HLA-A*31:01; [1]): 18600 nM
Kd (HLA-A*33:01; [1]): ≥ 35800 nM
Kd (HLA-A*68:01; [1]): 16300 nM

LTKFVAAALH
Kd (HLA-A*03:01; [5]): 16000 nM
Kd (HLA-A*11:01; [5]): 5660 nM
Kd (HLA-A*31:01; [5]): 694 nM
Kd (HLA-A*33:01; [5]): 5610 nM
Kd (HLA-A*68:01; [5]): 164 nM

LVVISVIFY
Kd (HLA-A*03:01; [1]): ≥ 24400 nM
Kd (HLA-A*11:01; [1]): ≥ 36700 nM
Kd (HLA-A*31:01; [1]): 10700 nM
Kd (HLA-A*33:01; [1]): ≥ 66100 nM
Kd (HLA-A*68:01; [1]): 5480 nM

MFEQYFIYTY
Kd (HLA-A*03:01; [1]): 18.6 nM
Kd (HLA-A*11:01; [1]): 2140 nM
Kd (HLA-A*31:01; [1]): 4510 nM
Kd (HLA-A*33:01; [1]): 5690 nM
Kd (HLA-A*68:01; [1]): 8110 nM

MFLTSVINR
Kd (HLA-A*03:01; [1]): 355 nM
Kd (HLA-A*11:01; [1]): 283 nM
Kd (HLA-A*31:01; [1]): 1.16 nM
Kd (HLA-A*33:01; [1]): 0.841 nM
Kd (HLA-A*68:01; [1]): 18.8 nM

MSTYSDICSK
Kd (HLA-A*03:01; [1]): ≥ 70100 nM
Kd (HLA-A*11:01; [1]): ≥ 69800 nM
Kd (HLA-A*31:01; [1]): ≥ 70000 nM
Kd (HLA-A*33:01; [1]): ≥ 70000 nM
Kd (HLA-A*68:01; [1]): ≥ 70200 nM

MTSWLDFSH
Kd (HLA-A*03:01; [6]): 548 nM
Kd (HLA-A*11:01; [6]): 116 nM
Kd (HLA-A*31:01; [6]): 176 nM
Kd (HLA-A*33:01; [6]): 13600 nM
Kd (HLA-A*68:01; [6]): 3.36 nM

MVMCGGSLY
Kd (HLA-A*03:01; [3]): 41.9 nM
Kd (HLA-A*11:01; [3]): 73.9 nM
Kd (HLA-A*31:01; [3]): 70.4 nM
Kd (HLA-A*33:01; [3]): 4620 nM
Kd (HLA-A*68:01; [3]): 22.6 nM
